Assay results: IntAct's records for PubMed 18725399

B1: U3 small nucleolar RNA-associated protein 6 (Saccharomyces cerevisiae), Q02354 (parent)
chain: MSKTRYYLEQCIPEMDDLVEKGLFTKNEVSLIMKKRTDFEHRLNSRGSSINDYIKYINYESNVNKLRAKRCKRILQVKKTNSLSDWSIQQRIGFIYQRGTNKFPQDLKFWAMYLNYMKARGNQTSYKKIHNIYNQLLKLHPTNVDIWISCAKYEYEVHANFKSCRNIFQNGLRFNPDVPKLWYEYVKFELNFITKLINRRKVMGLINEREQELDMQNEQKNNQAPDEEKSHLQVPSTGDSMKDKLNELPEADISVLGNAETNPALRGDIALTIFDVCMKTLGKHYINKHKGYYAISDSKMNIELNKETLNYLFSESLRYIKLFDEFLDLERDYLINHVLQFWKNDMYDLSLRKDLPELYLKTVMIDITLNIRYMPVEKLDIDQLQLSVKKYFAYISKLDSASVKSLKNEYRSYLQDNYLKKMNAEDDPRYKILDLIISKL
partner: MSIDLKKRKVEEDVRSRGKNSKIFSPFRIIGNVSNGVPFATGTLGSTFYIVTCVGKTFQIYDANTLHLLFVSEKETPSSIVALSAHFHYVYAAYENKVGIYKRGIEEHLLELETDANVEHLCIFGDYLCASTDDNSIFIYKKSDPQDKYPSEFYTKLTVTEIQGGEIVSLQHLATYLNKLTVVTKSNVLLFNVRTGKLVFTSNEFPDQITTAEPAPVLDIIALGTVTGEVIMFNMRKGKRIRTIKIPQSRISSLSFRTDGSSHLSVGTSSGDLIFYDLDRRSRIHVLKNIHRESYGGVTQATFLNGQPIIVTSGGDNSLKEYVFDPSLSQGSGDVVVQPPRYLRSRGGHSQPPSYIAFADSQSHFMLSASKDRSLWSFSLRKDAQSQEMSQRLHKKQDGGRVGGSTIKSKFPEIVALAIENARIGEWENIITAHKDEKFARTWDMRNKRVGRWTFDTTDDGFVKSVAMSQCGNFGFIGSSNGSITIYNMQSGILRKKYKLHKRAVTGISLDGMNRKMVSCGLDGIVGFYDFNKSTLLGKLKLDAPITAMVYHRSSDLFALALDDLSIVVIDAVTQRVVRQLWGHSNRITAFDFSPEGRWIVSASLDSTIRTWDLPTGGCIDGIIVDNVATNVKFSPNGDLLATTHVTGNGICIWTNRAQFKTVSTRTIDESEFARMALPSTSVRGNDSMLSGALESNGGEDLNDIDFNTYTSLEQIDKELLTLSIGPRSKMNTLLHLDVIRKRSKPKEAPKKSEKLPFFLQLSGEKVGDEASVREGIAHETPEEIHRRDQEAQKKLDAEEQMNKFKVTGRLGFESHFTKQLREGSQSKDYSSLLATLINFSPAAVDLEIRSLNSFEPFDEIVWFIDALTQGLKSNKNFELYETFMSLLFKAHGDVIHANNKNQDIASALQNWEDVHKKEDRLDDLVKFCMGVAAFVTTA
B2: U3 small nucleolar RNA-associated protein 6 (Saccharomyces cerevisiae), Q02354 (parent)
chain: B1 chain
partner: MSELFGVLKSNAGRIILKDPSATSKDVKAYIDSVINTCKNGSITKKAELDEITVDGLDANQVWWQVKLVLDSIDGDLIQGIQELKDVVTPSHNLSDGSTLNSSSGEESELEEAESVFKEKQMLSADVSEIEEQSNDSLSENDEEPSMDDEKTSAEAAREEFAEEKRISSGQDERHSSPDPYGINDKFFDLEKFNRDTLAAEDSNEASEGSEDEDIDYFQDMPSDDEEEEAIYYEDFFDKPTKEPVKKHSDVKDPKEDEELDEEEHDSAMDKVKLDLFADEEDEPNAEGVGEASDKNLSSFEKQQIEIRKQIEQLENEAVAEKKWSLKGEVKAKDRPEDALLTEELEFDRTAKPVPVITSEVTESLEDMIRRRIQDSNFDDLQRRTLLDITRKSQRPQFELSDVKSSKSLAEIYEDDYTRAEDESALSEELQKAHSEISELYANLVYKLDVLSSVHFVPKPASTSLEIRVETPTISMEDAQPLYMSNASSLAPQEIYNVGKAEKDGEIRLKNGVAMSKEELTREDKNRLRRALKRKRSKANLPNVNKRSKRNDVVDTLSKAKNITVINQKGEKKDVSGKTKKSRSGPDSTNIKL

Variants of: B1
Conditions: with utp21_yeast UTP21, Q06078

| Variant | effect of a mutation on the interaction |
| --- | --- |
| G99E | disrupting interaction |

Variants of: B2
Conditions: with mpp10_yeast MPP10, P47083

| Variant | effect of a mutation on the interaction |
| --- | --- |
| G99E | decreasing interaction |
